# Laboratory results reported in US20160194355A1 (MARUHA NICHIRO, published 2016).
# Biological target: dipeptidyl peptidase-IV (DPPIV) (Human, recombinant; manufactured by Biomol) (Human, UniProt P27487 39-766, limits assumed)
# Experiment: cell-based or functional assay
# dipeptidyl peptidase-IV (DPPIV) (Human, recombinant; manufactured by Biomol), sequence (P27487 39-766 limits assumed): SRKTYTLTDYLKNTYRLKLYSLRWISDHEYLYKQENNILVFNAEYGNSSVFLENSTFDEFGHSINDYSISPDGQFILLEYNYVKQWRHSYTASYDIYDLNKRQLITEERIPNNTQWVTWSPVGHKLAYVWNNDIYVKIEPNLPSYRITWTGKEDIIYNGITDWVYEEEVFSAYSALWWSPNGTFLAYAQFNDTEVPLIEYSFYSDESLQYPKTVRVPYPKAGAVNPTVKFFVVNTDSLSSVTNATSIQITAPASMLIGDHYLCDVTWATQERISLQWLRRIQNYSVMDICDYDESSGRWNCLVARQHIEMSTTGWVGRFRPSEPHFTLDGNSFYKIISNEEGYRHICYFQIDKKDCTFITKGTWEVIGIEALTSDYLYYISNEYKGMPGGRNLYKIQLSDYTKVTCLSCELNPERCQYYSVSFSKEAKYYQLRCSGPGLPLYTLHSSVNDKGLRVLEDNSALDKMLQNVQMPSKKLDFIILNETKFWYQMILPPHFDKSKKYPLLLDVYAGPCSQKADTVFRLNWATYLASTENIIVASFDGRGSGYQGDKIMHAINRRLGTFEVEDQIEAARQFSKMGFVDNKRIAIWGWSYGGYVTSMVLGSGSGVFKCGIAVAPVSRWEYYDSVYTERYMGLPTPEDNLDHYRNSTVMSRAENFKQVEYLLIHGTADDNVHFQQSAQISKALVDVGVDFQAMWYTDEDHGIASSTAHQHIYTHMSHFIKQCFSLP
row,Binder,"IC50 Value (µM), DPPIV inhibitory activity (enzyme activity on H-Gly-Pro-AMC substrate, fluorescence)"
1,WLP [Trp-Leu-Pro (WLP)],> 100 µM
2,WIP [Trp-Ile-Pro (WIP)],> 100 µM
3,FPVG [Phe-Pro-Val-Gly (FPVG)],40 µM
4,LP [Leu-Pro (LP)],> 100 µM
5,LPL [Leu-Pro-Leu (LPL)],82 µM
6,VIP [Val-Ile-Pro (VIP)],> 100 µM
7,VPI [Val-Pro-Ile (VPI)],3 µM
8,VPL [Val-Pro-Leu (VPL)],19 µM
9,LPF [Leu-Pro-Phe (LPF)],88 µM
10,IIP [Ile-Ile-Pro (IIP)],> 100 µM
11,VLP [Val-Leu-Pro (VLP)],> 100 µM
12,IPL [Ile-Pro-Leu (IPL)],26 µM
13,LPVL [Leu-Pro-Val-Leu (LPVL)],46 µM
14,IP [Ile-Pro (IP)],66 µM
15,IVP [Ile-Val-Pro (IVP)],> 100 µM
16,FP [Phe-Pro (FP)],> 100 µM
17,IPI [Ile-Pro-Ile (IPI)],3 µM
